US20100184108

Biological target: T1, 15-residue histone H3 trimethylated Lys9 (H3K9me3) substrate peptide, H2N-ARTKQTARK(tri-methyl)STGGKA-amide
T1 chain: ARTKQTARKSTGGKA

B1: catalytic domain, residues 1-350, of the human histone demethylase JMJD2A (protein)
chain: MASESETLNPSARIMTFYPTMEEFRNFSRYIAYIESQGAHRAGLAKVVPPKEWKPRASYDDIDDLVIPAPIQQLVTGQSGLFTQYNIQKKAMTVREFRKIANSDKYCTPRYSEFEELERKYWKNLTFNPPIYGADVNGTLYEKHVDEWNIGRLRTILDLVEKESGITIEGVNTPYLYFGMWKTSFAWHTEDMDLYSINYLHFGEPKSWYSVPPEHGKRLERLAKGFFPGSAQSCEAFLRHKMTLISPLMLKKYGIPFDKVTQEAGEFMITFPYGYHAGFNHGFNCAESTNFATRRWIEYGKQAVLCSCRKDMVKISMDVFVRKFQPERYKLWKAGKDNTVIDHTLPTPEA
- fluorescence of the formaldehyde-Luminos reagent adduct (demethylase activity, positive control assay): 57,000±400 relative fluorescence units
- fold reduction in the fluorescence signal when a component is omitted: Omission of 2-OG, the H3K9me3 peptide, or JMJD2A results in a ˜30-fold reduction in the fluorescence signal
- signal to background ratio (positive control reactions against negative control assays): signal to background ratio of 20:1 or greater
